Assay [1] deals with His6-tagged integrin α2A domain, wild type (human) (UniProt P17301). As to the kind of experiment: ELISA; His-tagged α2A domain (wt or mutant) coated on microtiter wells at 10 μg/ml in TBS/Mg pH 7.4; titrated with RCαβγδ or RCγδ without and with NPS-modified tryptophans in 1% BSA/TBS, 2 mM MgCl2, 1.5 h; bound RC fixed with glutaraldehyde and detected with rabbit RC antiserum, OD 405 nm; Kd by nonlinear regression. Background: ELISA stands for enzyme-linked immunosorbent assay.

Assay [2] deals with disulfide-locked α2A domain, “closed” conformation (C150A, C270A, K168C, A325C) (human) (UniProt P17301). The description is as above.
The target in assay [3] is α2A-L2^α1 mutant (loop 2 of α2A replaced by the loop 2 sequence of the integrin α1 A-domain) (human) (UniProt P17301). As to the kind of experiment: ELISA; α2A wt or mutants (10 μg/ml) captured on immobilised mAb JA218 (2.5 μg/ml), TBS/Mg; titrated with RC; bound RC fixed and detected with rabbit RC antiserum; Kd by nonlinear regression.
Assay [4] deals with α2A domain Y216G mutant (human) (UniProt P17301). The description is as above.
Assay [5] has as its target His6-tagged integrin α2A domain, wild type (human) (UniProt P17301). The assay is described as above.
For assay [6], the target named is α2A domain S214G mutant (human) (UniProt P17301). Described as above.
For assay [7], the target named is α2A domain D219A mutant (human) (UniProt P17301). The assay is described as above.
Assay [8] deals with T1, rhodocetin heterotetramer (RCαβγδ).
T1 chain 1: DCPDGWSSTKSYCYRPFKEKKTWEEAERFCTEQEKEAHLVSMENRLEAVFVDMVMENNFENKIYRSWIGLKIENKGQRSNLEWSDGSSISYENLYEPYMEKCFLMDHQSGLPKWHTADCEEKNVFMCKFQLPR
T1 chain 2: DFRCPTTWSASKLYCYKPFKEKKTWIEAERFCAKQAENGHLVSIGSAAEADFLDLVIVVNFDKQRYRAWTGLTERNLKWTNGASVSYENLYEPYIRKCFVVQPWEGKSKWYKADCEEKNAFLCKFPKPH
T1 chain 3: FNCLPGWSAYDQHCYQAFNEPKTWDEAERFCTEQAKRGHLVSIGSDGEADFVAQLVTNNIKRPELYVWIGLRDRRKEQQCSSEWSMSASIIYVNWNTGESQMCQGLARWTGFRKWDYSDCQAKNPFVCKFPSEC
T1 chain 4: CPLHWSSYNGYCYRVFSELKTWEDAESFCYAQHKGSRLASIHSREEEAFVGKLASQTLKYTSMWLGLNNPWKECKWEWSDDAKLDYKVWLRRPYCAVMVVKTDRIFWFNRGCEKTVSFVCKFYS
In words: ELISA. To be noted: chain shown with the change; for percent of parent (% of wild type α2A): read at the highest rhodocetin concentration (about 70 nM), α2A captured by immobilized antibody JA218.

UniProt P17301, sequence (P17301 142-337 Y216G): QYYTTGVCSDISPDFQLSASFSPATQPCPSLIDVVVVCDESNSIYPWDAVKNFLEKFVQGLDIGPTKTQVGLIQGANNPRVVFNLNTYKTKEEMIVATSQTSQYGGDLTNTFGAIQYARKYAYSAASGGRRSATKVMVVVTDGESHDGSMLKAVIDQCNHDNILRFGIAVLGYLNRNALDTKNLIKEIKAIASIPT

Regarding “rhodocetin heterotetramer (RCαβγδ) (complex)”, the Kd – broadly, the free concentration of one partner at which half of the binding sites on the other are occupied at equilibrium, for simple one-to-one binding – in assay [1] was determined as 0.29 nM; in assay [2], 0.21 nM; in assay [3], 2.7 nM; in assay [4] it was 1.98 nM; in assay [5], 0.76 nM; in assay [6] it was 0.77 nM. Further, the Kd in assay [7] is 5.2 nM.

B1: His6-tagged integrin α2A domain, wild type, P17301 C150A; C270A; K168C; E318C (protein)
chain: SLIDVVVVADESNSIYPWDAVKNFLECFVQGLDIGPTKTQVGLIQYANNPRVVFNLNTYKTKEEMIVATSQTSQYGGDLTNTFGAIQYARKYAYSAASGGRRSATKVMVVVTDGESHDGSMLKAVIDQANHDNILRFGIAVLGYLNRNALDTKNLIKEIKAIASIPTERYFFNVSDCAALLEKAGTLGEQIFSIEG
Consider B1, for which the response in assay [8] (read at the highest RCαβγδ concentration (about 23 nM), α2A immobilized at 10 μg/ml, parent: est. 2.6, read off a plot) turned out to be 0.38 OD405nm. Also, in assay [8] (α2A immobilized to microtiter plates at 10 μg/ml, titrated with RCαβγδ, OD405), the Kd was determined as 2.64 nM.

B2: His6-tagged integrin α2A domain, wild type, P17301 G217K (protein)
chain: SLIDVVVVCDESNSIYPWDAVKNFLEKFVQGLDIGPTKTQVGLIQYANNPRVVFNLNTYKTKEEMIVATSQTSQYKGDLTNTFGAIQYARKYAYSAASGGRRSATKVMVVVTDGESHDGSMLKAVIDQCNHDNILRFGIAVLGYLNRNALDTKNLIKEIKAIASIPTERYFFNVSDEAALLEKAGTLGEQIFSIEG
On to B2, for which the percent of parent (% of wild type α2A) in assay [8] (read off a plot) was found to be 11.

B3: His6-tagged integrin α2A domain, wild type, P17301 G218L (protein)
chain: SLIDVVVVCDESNSIYPWDAVKNFLEKFVQGLDIGPTKTQVGLIQYANNPRVVFNLNTYKTKEEMIVATSQTSQYGLDLTNTFGAIQYARKYAYSAASGGRRSATKVMVVVTDGESHDGSMLKAVIDQCNHDNILRFGIAVLGYLNRNALDTKNLIKEIKAIASIPTERYFFNVSDEAALLEKAGTLGEQIFSIEG
Regarding B3, in assay [8] (read off a plot), the percent of parent (% of wild type α2A) turned out to be 12.

For the origin of these results see article PMC5509089.
